Reference: US20260209362A1 (VIB VZW, published 2026)
Numbering of substitutions follows the chain as printed.

T1: human IL-12Rβ2 (human, UniProt Q99665 24-862)
T1 construct: Expressed on HEK293T cells transiently transfected with a pcDNA3 plasmid (Genscript clone OHu21785); also called hIL-12RB2; IL-12 receptor β2 subunit
T1 sequence: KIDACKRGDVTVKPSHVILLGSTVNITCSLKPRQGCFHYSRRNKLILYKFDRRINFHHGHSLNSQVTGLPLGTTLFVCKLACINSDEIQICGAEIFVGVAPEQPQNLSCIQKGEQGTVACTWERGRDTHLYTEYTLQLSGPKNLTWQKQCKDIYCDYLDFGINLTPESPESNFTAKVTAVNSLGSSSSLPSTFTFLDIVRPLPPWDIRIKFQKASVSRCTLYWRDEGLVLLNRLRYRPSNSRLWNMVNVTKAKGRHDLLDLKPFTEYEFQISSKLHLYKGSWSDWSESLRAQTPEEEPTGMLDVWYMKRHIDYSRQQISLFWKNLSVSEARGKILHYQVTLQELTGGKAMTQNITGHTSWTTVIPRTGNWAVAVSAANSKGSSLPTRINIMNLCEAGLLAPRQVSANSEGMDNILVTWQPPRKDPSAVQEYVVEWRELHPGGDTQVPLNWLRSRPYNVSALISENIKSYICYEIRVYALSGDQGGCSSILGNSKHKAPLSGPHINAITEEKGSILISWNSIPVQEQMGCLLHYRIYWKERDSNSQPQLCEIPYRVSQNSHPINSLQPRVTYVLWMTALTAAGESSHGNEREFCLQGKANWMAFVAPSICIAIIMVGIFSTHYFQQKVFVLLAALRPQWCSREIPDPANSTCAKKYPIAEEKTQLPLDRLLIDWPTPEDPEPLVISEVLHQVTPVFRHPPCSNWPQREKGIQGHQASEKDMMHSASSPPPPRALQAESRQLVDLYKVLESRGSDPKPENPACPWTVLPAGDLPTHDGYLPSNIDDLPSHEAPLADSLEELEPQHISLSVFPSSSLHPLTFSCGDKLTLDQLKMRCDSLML

T2: biotinylated recombinant human IL-12Rβ2 (human, UniProt Q99665 24-622, random biotinylated)
T2 construct: Recombinant protein produced in-house, biotinylated; also called hIL-12RB2; human IL-12RB2
T2 sequence: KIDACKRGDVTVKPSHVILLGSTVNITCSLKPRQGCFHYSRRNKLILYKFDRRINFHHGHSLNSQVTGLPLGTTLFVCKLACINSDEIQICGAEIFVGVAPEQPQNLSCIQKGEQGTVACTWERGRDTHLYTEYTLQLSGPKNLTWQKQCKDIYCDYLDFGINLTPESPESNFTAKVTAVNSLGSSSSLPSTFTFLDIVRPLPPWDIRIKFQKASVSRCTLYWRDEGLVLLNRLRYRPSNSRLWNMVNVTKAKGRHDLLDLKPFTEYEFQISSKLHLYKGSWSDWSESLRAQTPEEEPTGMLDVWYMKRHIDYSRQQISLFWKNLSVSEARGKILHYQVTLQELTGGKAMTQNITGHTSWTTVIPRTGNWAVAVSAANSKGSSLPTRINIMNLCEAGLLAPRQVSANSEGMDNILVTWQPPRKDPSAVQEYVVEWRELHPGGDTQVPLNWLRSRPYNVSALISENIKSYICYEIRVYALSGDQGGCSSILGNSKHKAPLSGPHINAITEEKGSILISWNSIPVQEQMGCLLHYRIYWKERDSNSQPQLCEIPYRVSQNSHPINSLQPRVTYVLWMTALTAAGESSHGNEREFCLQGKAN

T3: biotinylated recombinant mouse IL-12Rβ2 (mouse, UniProt P97378 24-637, random biotinylated)
T3 construct: Recombinant protein produced in-house, biotinylated; also called mIL-12RB2; mouse IL-12RB2
T3 sequence: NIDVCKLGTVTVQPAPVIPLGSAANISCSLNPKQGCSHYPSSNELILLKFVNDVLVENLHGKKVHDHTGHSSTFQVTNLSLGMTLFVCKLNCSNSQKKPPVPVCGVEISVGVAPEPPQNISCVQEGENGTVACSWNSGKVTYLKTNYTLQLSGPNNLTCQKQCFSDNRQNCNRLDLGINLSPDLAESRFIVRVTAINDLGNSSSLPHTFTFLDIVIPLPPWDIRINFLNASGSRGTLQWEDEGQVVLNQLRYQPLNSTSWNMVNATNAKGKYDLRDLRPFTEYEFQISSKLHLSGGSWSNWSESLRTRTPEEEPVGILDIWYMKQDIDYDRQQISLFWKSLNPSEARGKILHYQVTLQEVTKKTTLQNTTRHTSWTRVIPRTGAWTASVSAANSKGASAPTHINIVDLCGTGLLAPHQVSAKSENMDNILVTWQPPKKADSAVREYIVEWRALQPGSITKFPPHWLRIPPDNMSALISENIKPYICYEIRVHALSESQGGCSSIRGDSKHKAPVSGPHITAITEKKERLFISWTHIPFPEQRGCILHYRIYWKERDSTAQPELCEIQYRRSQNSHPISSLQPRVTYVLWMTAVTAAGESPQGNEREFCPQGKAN

B1: anti-IL-12Rβ2 VHH clone 2CRH76 (VHH, not shown: small tags and cut ends)
VHH: QVQLQESGGGLVQTGGSLRLSCVASGRTFNWSAMGWFRQPPGKEREVVATISGGGTSAYYADSVKGRFTISRDGAKNTLYLQMNSLKPEDTAVYYCAADRVDYRMTLTQNGNHYWGQGTQVTVSS
notes: periplasmic extract
B2: anti-IL-12Rβ2 VHH clone 3CAHS153 (VHH, not shown: small tags and cut ends)
VHH: QVQLQESGGGLVQAGGSLRLSCAASGRTFSSYAMGWFRQVPGKERDFVAAVSWGGLSTYYADSVEGRFTISRDNAKNTVFLQMNSLKPEDTAVYYCAADRAYEGLGYGEYEYWGQGTQVTVSS
notes: periplasmic extract
B3: anti-IL-12Rβ2 VHH clone 2CRH62 (VHH, not shown: small tags and cut ends)
VHH: QVQLQESGGGLVQPGGSLRLSCVESGRTFTVYDMGWFRQAPGKEREIVAAISADGATSIYQDSVKGRFTISRDNDAKNTVYLQMNSLKPEDTAVYYCAAGRSLIYNLYRANNTDYWGQGTQVTVSS
notes: periplasmic extract
B4: anti-IL-12Rβ2 VHH clone 3CAH34 (VHH, not shown: small tags and cut ends)
VHH: QVQLQESGGGSVQPGGSLRLSCGASGFTFSSFGMHWFRQAPGKGQEWAATISSSGGTTYYSDSVKGRFTISRDNAKNTLYLQMNSLKPEDTALYYCARDVTGAVRGQGTQVTVSS
notes: periplasmic extract; also called 20358
B5: anti-IL-12Rβ2 VHH clone 3CAHS172 (VHH, not shown: small tags and cut ends)
VHH: B4 VHH with P14A, A48V
notes: periplasmic extract
B6: anti-IL-12Rβ2 VHH clone 3CRH93 (VHH, not shown: small tags and cut ends)
VHH: QVQLQESGGGLVQAGGSLRLSCAASGRTVDSYAMGWFRQTPGKEREFVAASWGGGSTYYADSVKGRFTISRDNVKNTMYLQMDSLKPEDTAVYYCAAGPTYYSGPINDNWEGRYDSWGQGTQVTVSS
notes: periplasmic extract
B7: anti-IL-12Rβ2 VHH clone 3CRH73 (VHH, not shown: small tags and cut ends)
VHH: QVQLQESGGGLVRAGGSLRLSCAASGHTFSNYVMGWFRQAPGKEREFVAAISWGGSNTYYADSVKGRFTISRDNAKNTVYLQMNSLKVEDTAVYYCAADRRFEGWNYYSMDYWGKGTQVTVSS
notes: periplasmic extract
B8: anti-IL-12Rβ2 VHH clone 2CRH82 (VHH, not shown: small tags and cut ends)
VHH: QVQLQESGGGLVQAGGSLRLSCAASARTESMYAMAWFRQAPGKEREIVAGIIQSGGTTYISDYMKGRFSIDRGNAENTVYLQMDSLKPEDTAVYSCAAKVSSGTPSDIQISQSRWYDHWGQGTQVTVSS
notes: periplasmic extract
B9: anti-IL-12Rβ2 VHH clone 20510 (VHH, not shown: small tags and cut ends)
VHH: QVQLQESGGGLVQAGGSLRLSCAASGRTFSSYGMGWFRQAPGKEREFVAAISRGARITDYADSVKGRFTISRDNAKNTAYLQMNSLNPEDTAVYFCAAAYTYSGSHYVTARSSDYHSWGQGTQVTVSS
notes: tested as periplasmic extract; also called 3CAM31
B10: anti-IL-12Rβ2 VHH clone 20480 (VHH, not shown: small tags and cut ends)
VHH: B9 VHH with G54D, Q82E
notes: tested as periplasmic extract; also called 2CAM36
B11: anti-IL-12Rβ2 VHH clone 20500 (VHH, not shown: small tags and cut ends)
VHH: B9 VHH with A14P, R27F, G54D, Q82E
notes: tested as periplasmic extract; also called 2CAM81
B12: anti-IL-12Rβ2 VHH clone 20499 (VHH, not shown: small tags and cut ends)
VHH: B9 VHH with G54D, R56S, Q82E
notes: tested as periplasmic extract; also called 2CAM75
B13: anti-IL-12Rβ2 VHH clone 20481 (VHH, not shown: small tags and cut ends)
VHH: B9 VHH with E46D, G54D, A75V, A79V
notes: tested as periplasmic extract; also called 2CAM38
B14: anti-IL-12Rβ2 VHH clone 20469 (VHH, not shown: small tags and cut ends)
VHH: B9 VHH with A14P, E44K, G54D, Q82E
notes: tested as periplasmic extract; also called 2CAM8
B15: anti-IL-12Rβ2 VHH clone 20497 (VHH, not shown: small tags and cut ends)
VHH: B9 VHH with G16D
notes: tested as periplasmic extract; also called 2CAM72
B16: anti-IL-12Rβ2 VHH clone 20495 (VHH, not shown: small tags and cut ends)
VHH: B9 VHH with S31M, Y32H, G54D, H116N, S117Y
notes: tested as periplasmic extract; also called 2CAM69
B17: anti-IL-12Rβ2 VHH clone 20488 (VHH, not shown: small tags and cut ends)
VHH: B9 VHH with V12M, G16D
notes: tested as periplasmic extract; also called 2CAM48
B18: anti-IL-12Rβ2 VHH clone 20491 (VHH, not shown: small tags and cut ends)
VHH: B9 VHH with E46D, G54D, I57Y, R72K, S113G, H116N, S117Y
notes: tested as periplasmic extract; also called 2CAM57
B19: anti-IL-12Rβ2 VHH clone 20527 (VHH, not shown: small tags and cut ends)
VHH: QVQLQESGGGLVQAGGSLRLSCAASGFTLSTYAMSWVRQAPGKGLEWVSSISSSGASTNYADSVKGRFTISRDNAKNTLYLQMNSLKPEDTAVYYCAKASQNYSPPGQGTQVTVSS
notes: tested as periplasmic extract; also called 3CRMS90
B20: anti-IL-12Rβ2 VHH clone 20452 (VHH, not shown: small tags and cut ends)
VHH: B19 VHH with T28A, L29F, T31S, Y32V, S54G, A56H, S57D, D62N, A99S, Q101R
notes: tested as periplasmic extract; also called 2CRM84
B21: anti-IL-12Rβ2 VHH clone 20451 (VHH, not shown: small tags and cut ends)
VHH: B19 VHH with A14P, L29F, T31A, S54T, A56T, S57N, T58P, K98E, S100Y, Q101R
notes: tested as periplasmic extract; also called 2CRM83
B22: anti-IL-12Rβ2 VHH clone 20447 (VHH, not shown: small tags and cut ends)
VHH: B19 VHH with A14P, L29F, S30R, T31S, A56T, S57D, F68L, A75V
notes: tested as periplasmic extract; also called 2CRM39

These binders were tested against T1, human IL-12Rβ2 (assay: flow cytometry, P.E. on transfected HEK293T cells).

Binder	% cells bound [%]	dMFI
B1	36.6	668
B2	36.8	789
B3	41.9	891
B4	34.6	620
B5	43	1020
B6	31.5	580
B7	41.2	918
B8	40.1	844

What follows are binders tested against T2, biotinylated recombinant human IL-12Rβ2 (assay: ELISA, periplasmic extract on biotinylated hIL-12Rβ2, signal over control wells).

Binder	ELISA binding hIL-12RB2/control [ratio]
B9	1.2
B10	0.979
B11	0.982
B12	0.985
B13	0.983
B14	1.05
B15	0.932
B16	0.924
B17	0.973
B18	1
B19	0.834
B20	0.989
B21	1.26
B22	1.4

These binders were tested against T3, biotinylated recombinant mouse IL-12Rβ2 (assay: ELISA, periplasmic extract on biotinylated mIL-12Rβ2, signal over control wells).

Binder	ELISA binding mIL-12RB2/control [ratio]
B9	16.4
B10	18.1
B11	24
B12	10.4
B13	15.8
B14	22
B15	13.4
B16	15.8
B17	12.9
B18	14.4
B19	9.93
B20	7.52
B21	33.5
B22	11.8
